Assay: soluble on expression in E. coli; label from the status in PepcDB or PDB records
For “MAHHHHHHMSSETPRASTHDVFCAALQMLGGAQIFAQPLIQRTAVASLSPRSRNGNQASAVIAESATSRDAGTNHLPDPGIDVDAKPVDKPCCRGEQPCERTGTAPVKAMVTLCDPPARCEGVLAAQNAQRRLHHLRFFGGRFFLADGVTASESQQTSGYASTATSNAHVSDDCSSTWELKASYFQAMKETLTAVMGRRLRSQLLCDDSTADTGTVLRAPVPRGATGASTMTTSARQAALRRRMEAFTSAVVHQESILDAVAAACRARLNTVGGATAAPTPCFFFSALPQISVRQWAGSHLYKHWLVRCGTPRASLPSTATNPQKSGPHGAPMLTSPSAPRAPATALVLPLDVEAELRKYWKLHDEAAARARLEALRCNDAQAFAEHVSLLKVSALLEIMEKTEGFMRRIGLRLQFHATQAAANRGGDGARAVPTTRAAPAALAEPGIADRPGGAAGCHGSEYERFRSYVASTKNEFKLMHRVDVFVAAQPAGLDATLLPHQMDGLRFLASLDANHINGILADEMGVGKTIQTLAFLLYLKNRRGETGETGEGSGGRVAPPRVGSRLPHLVLAPLSVVREWREACEQFVPSALHVAMYQELADPVHEAAAYDLVLLPVHAIRYVGAEAARIQWHYIVVDEAHKAVANLSTITAQRILRPLVFAPPGADWNAAQQRLAGALVAAALSESGGVHRQ”, the “soluble on expression in E. coli” value was “not soluble”.
In the case of “MAHHHHHHMSSPFFGEQRKTRHNRSCSSCDSLPRYAASPPCHPQYAKVDRAAPSVSSPTFSSVPPSPKFPALCMHAMSHTNSTVPSSKLPFSNSVTGNGAALIGTLASFDSEAPRGRPASVAEDGAASGSSSGLSRAAVLMSGRGDASPPFSPQPSGSVLAVFCPLTSKAWQSGTLRDGIAFDVDTTSKVSTISPQTGLQSPLLFSSGWSQQSVSAAAQGTPPSFMGTPGQSLISAGAEGDDAEDTPHSCGAMYSPNHSVSLLPAPKVFVSVYPVQSPEPFATKFTGSPVFEVSLTTPPSIRAPQTGAARGAGATPAPSSRLPSESLEQYSLLRSPILHSLTPLSISPSAPLSPGFGCITGTEPMQSRLSRHRLATSAGSEQLPVRTSNDMRSRNAAVASPPPAAVPSVNSNHESLSDRLVSPARRSYRCPLPSSNEASLSSFFAVDDAGLHANLSMTQASEEDAAHRAASATLPRVCSSKDTEAEEGVAAALAPDTTDDPFEAFWDISPAAQWGGSVTEMLPRITTSSAPFETGSASRSVTAFASGTHEKDSHSSEEFNQNNRLSCVSMERHRNTILHRPSAAQQRNTILHRPSVVQQRNSVNRSVDTQRTTSKTMTLQQRQRRFSLQQEDSIEIKRRSYA”, the “soluble on expression in E. coli” value is reported as “not soluble”.
In the case of “MAHHHHHHMSSSVVIVGDSICGGDGDQKLSTSHDEVYLRGFNTFAGNNPSDRALLHEGAGEVVAAISGHIEVTERVISVKGLLPRYQPEIGDVVVGRIVEVSGNKWHVDVNSTQTAIMLLSSVTEPGGILRRRGRGDELGMRQIFDQDDLVAAEVQRISPDGVMSLHTRAADKYGRLSGLGILVSVRPSLVKRAKHQFVELADYSTQLIIGMNGNIWICSVQPSTSDAEETEHATDARQNVARVANCIKALGAAQVQIHPASIEASVAASLDAGLSVFDVSLPKNRDALVARVADMVGMQHRRPTGGGACARTLV”, the “soluble on expression in E. coli” value is reported as “not soluble”.
With “MAHHHHHHMSSVSSPPLTDAEVRELSTAEIRLNLERCSRLLSQASLLRRLRDGGEGIRHRSELFAKELERRHTVEAANGDASTRLASSTLTEALKRENEAAILSESTHNATDAAREIAQKYRDQRIDVEATVRRIYEGILSESEIQRILHSVPPRFFLTYAETCEMERQLARDARKVELQKLAAQAARLSATPQ” the “soluble on expression in E. coli” value was “soluble”.
For “MAHHHHHHMSTGHLRSVQLCRGQLRSLSHSSSMVGLRDFCNLVDECIKDIGVLKVNADDARILLHKRQQTFPSRHCDGVLAQTQVLYAQVLLKNLAEPVNRLIVRPVAVKNEGSEGLGVLHKPYDGAQSASPEIIAAQLELLQRAHRPTALNVLQDCRVHAATLLRAVRAVQLAQVRFSPHEKCTNTHGPKKKKK”, the “soluble on expression in E. coli” value was “not soluble”.
With “MAHHHHHHMSTRTILTAGEAAEVLASVRYVLLDVDGVLWAGKHVLPNIPETLLYLRLREKQIRFLTNNASISRAGLVREFQRRGIQGVREGEVYNSGFAAALRLQSLFTANKSTGSGRPLVERNIFVIGEEGLHEELRRVLAPGYIAYGMELHDAEKCGGYDAHVVASAWKQRVLPAPLQSSATSCGIAATGHAAGGISISDLSPAAVVVGLDMHFNMLKLAYASLCLQERPAAQTAGTSSSTPTYFIATNEDPQIPVGEDFLLLPGAGGMVSALRTVSGRSPDFVCGKPHVDMAKVFFEAEGITDPQQCLMVGDRLTTDIAFGNAAGCKTMLVLSGAEKMDRVRQAERDGHVSLLPDFIAPSLAIFLPPA” the “soluble on expression in E. coli” value was “soluble”.
In the case of “MAHHHHHHMSVIGVFSKGRATGHASVMSVLRYVPRARVPWQPSRFGRENLADDDMAQLWGTGRYRTGPGNYNSGYSTKKTHALEDSTVSIIPKHELEKFMPDISLGSKALVTPVSLMSARNGHRVTHDLIHSYDPYIGRLQKPAVVDHDNITVEDPNRVGLNAATLDCRSRIYRWLRRGPFFQEDNYFRRSTKLQRNGPVPVSVHEVPLMQRIIRLARRGHLKAACEEYRRVTSVPPVDVYRALTAACVPGAKLADAIAIFEDGHSRLFYVARDGEVLHNMLRCAIRAKHRVRVMWVYNVMVGRHYENVVVRAEVDVIWRYRIASLALEYLLDSNAGEEARTVYDYLVENELVDCDLHVRLGHVMQQALKEGKTVHVQQDALDGMALSQNVVAVAPQVAVAVYARYLETMQEGAAWTDARGLPLTDPAKTGADTNGAAAVAWLKAAFPDIDPVAVLRLARFRRSSKDLMAKDRPVYVQRAAQWVELLSSAHQTREEAPLTYLRKSRPSMANPNVRVAWLPERQRAHALLASDEGFKFAYAGPHTRFVEETFAYGENTLQSRYLAQQPVHTEVTPSVALGAAAVAAGMSSGSALPRLPGSSAAPQILHASVLLDGSLNGSSGSGTSTLRSGRNESAKAAASPTAGISSRPSSASSSAGLDDTHF”, the “soluble on expression in E. coli” value is reported as “not soluble”.
In the case of “MAHHHHHHMSVPLRRTVLHSLHLSRKARMGPFAGYDMPIHYQPGVVQEHLHTRQAAGLFDVSHVGFFEVWGADRHKFFEWVTPSGVTELQDGQSALTLFMNESGGVKDDCIVSKYSDHLLAVINAGCKGKIITHLKDRLAEFKGDATLVELDRAMVSLQGPKAASVMAPFVEELDRVKFMWGRRSVCVKGIDITLTRCSYSGEDGFDIIVPIQDAVQFVELLLQNPDVQLAGLGARDSLRTEAGLCLYSHELSEEVNPVAARLMWCIPKRRMAEGGFIGHERLQTFVQRAKELVPRLRMGILSVARGPVARTGMPILVGDVVVGEVTSGVPSPTLSRNIAIGYIDRAKARAGETVELEVRGKRLPGEVTLPRFVPQRYYKG”, the “soluble on expression in E. coli” value is reported as “not soluble”.
With “MAHHHHHHMSVVRVSITHSSSGIRVPEKRYELSQTIASIKSNIFTHFATPPEQMQLQLIDDRGVKVESSMADDKQLGYYQCRDDFVIHVVDLRPTQQIANFEDVSQVQKYEITEEAYSKREDNARAFRQLMMARQREEAEKAGNPLPKELDADSYKETAEKIHVDDRCQCQPGDRLGTVRFVGRVASLKPGYWIGVEFDEPVGKGDGSVKGTRVFECQPKYGGFLRPDQVTVGDFPPEEF” the “soluble on expression in E. coli” value was “not soluble”.
In the case of “MAHHHHHHMSYPYYTEFFVRFPKFKEREESERTVDPRIELEKKCQAKCVRPVNEYQSCVSRVQAKPEMKGNCLGQHEEMYMCIDHCVAKDLFNYLV”, the “soluble on expression in E. coli” value is reported as “not soluble”.
In the case of “MAHHHHHHMTAAERLRRSRDNAVHHPKPSAATSSTISPALALSSSNSSPSANAAVPIEISPPPPNQGAVMIRYSKQQLLSLRPAAIEHVMRGRVVDHPPFLKIPESFAPLLSLPFAMEYVNVDAAMQLVEHRSYASRPASSPPTSVARTEDLDDEAQARLYTCPVCAQGRLHSCTAIQHILQRTSRYFMSTKLGAALMQPALVVESLLQLALVFDAKQSSLRLRMLAEQSPRVVHLVEEYLCGEGYHLPLPPVTAHEDWAALNAMLRFDAIRDNKTRVITDLSKHWKKRRTQFEQFVYFFAFRDARPVRPAKNIITKSAKPGMVAMLTGDVPAMVLLHRLGFFIPPDYYWKVFPFLRQALGEGTLSYDVVRHLGLYLSSAQPADMYNPVEVPIHA”, the “soluble on expression in E. coli” value is reported as “soluble”.
With “MAHHHHHHMTACSARAQAAAAVHTVVVSLTARREWWKHTCALDSASVFIVHTSDCPPPNRYTARAYPLRCEARLSLHVYANLPAPVSRQCITFLSFRGIYLSPLFCCPPLRHSFHAPAHQFQPPPPSSPFPTLPTRATQHHHHCSHTRVHQICPAVPSLSALSNILTVSAMSAKTAAAPSERSFVDRFVRSHAGAATAAGILEIGFFHPFDTIAKRLMANKGSIMRGSTGETAANLNIIVFKKHADAGFLRKVVYLYPGSLYATVYKVFQRVYKFAGQPLVRDFLSSNYRDGFKRYFGEAHKVMEDATAGCLIGLGEVFLLPLDRLKVLSQTNEAAMRSGLLPLLRQEGFRGMYAGTVVTMCRNAPGSFCLFGGTAFTKGYIFGLSDYRHATLFQNMCASTVGACVAIAISNPMDVVKTRVQQQTAAERCSGMAMATAMLKEEGMLSFFKGLTPKIIASAPKLIFAYTMTEFFFKVMNDSKKH” the “soluble on expression in E. coli” value was “not soluble”.
With “MAHHHHHHMTAHHALLLGSLVDDVDLSVRRGAQADTLTVDGAADRLLSAIASYTKSAAATDVDVEDNGEAAQETAALSLMAHMQRLSLLCNAARTPETSCTSAGEDNIHKCVDDWAKWLLGLESKPIVLASKVALCLPPLQACWRGGSALDGAGSAHIDRIEEAIGSFFAHAARRCVTEWTTHGAPLRTLLPPLALLTTYARFRWAWSRFTELRHVGGGEHLGEAEGGIAVVGSSDTVQRQENRDIDFLGIAGEVESCHAAKLTREVLLHSLKTIDWRVGSAVPAVKEVAPLFWCVFLRCRSYALHSCSQCRSSSSDFFAHEASARLVAQVLRCTVDGVRLCIERQAADMHVARARQLCTCDIPCLVLLTRLWFSWIALATDAAAVLLPRLERSLRQLVSSVVKLRGGAETKPPPSSVAAALAENSAEASWTEQETLFVEVAWKVAPLSMSEIASATAAVPWTSEFVRASEVQAVLEKRTLVAPVP” the “soluble on expression in E. coli” value was “not soluble”.
In the case of “MAHHHHHHMTNLNVESGYFNDELKEEANEANFMYTNISMLIRAHRKDRNKLTLQNKKLNLIKIVGFVLAIEEKKEFIVYTVDDSTGYIKAKLLLTYSYSACNDKNEDIKVDDMVQIFGICNTVSINEDLTISISSINKVNSLNHLCHHHLLVFHNYLKFLETQKKNLALEDERAKNEEDEIAPHVPTNDNPFFNSFFY”, the “soluble on expression in E. coli” value is reported as “not soluble”.
In the case of “MAHHHHHHMTSLTEEHEILIDEPPQFTAAAEVIAVGAEEPTVATPEEFTSAQEAGAFLQTPVGTPPATPTSVPTTPSPNEMAAKHARKRWRMEQLALQESVKVVESEPISRRGHSRKAEMSEFAITKAATLNTAPTLLSMSPNIIDTNVTMLGTKRVPLDNFLKVTVLHPKVTPVNLKLEFIDPVLEPVQLSRHQLGNRVTPNEGEGGGMSVKKKRGRKPLVASPSIEEAKAVESGYNAE”, the “soluble on expression in E. coli” value is reported as “not soluble”.
In the case of “MAHHHHHHMTTLEKRIEEASGLIYRARAEETPDGNPLVAARNYIAAMEIITNICKDVSPESDNDKDRFFLFQVRQRMEVYQKRVQLLLSVAAEMGLDDIPEHVGNTVLDSPPHAGDRTGAADFENPAVPSTAPTSVPPPACADGFGENVPPLEYFFSQQPQAPTRPHPEETESVEALLGQFSFDEVKKE”, the “soluble on expression in E. coli” value is reported as “soluble”.
